The results in this text go back to US20090099029.

The data set deals with T1, Bovine, dephosphorylated, Myelin Basic Protein (MBP), P02687.
T1 chain: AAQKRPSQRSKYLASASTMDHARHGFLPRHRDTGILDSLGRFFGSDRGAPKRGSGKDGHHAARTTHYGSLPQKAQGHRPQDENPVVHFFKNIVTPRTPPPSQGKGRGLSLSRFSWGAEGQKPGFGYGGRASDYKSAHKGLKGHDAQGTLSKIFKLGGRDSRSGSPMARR

B1: RET (protein)
chain: HCYHKFAHKPPISSAEMTFRRPAQAFPVSYSSSGARRPSLDSMENQVSVDAFKILEDPKWEFPRKNLVLGKTLGEGEFGKVVKATAFHLKGRAGYTTVAVKMLKENASPSELRDLLSEFNVLKQVNHPHVIKLYGACSQDGPLLLIVEYAKYGSLRGFLRESRKVGPGYLGSGGSRNSSSLDHPDERALTMGDLISFAWQISQGMQYLAEMKLVHRDLAARNILVAEGRKMKISDFGLSRDVYEEDSYVKRSQGRIPVKWMAIESLFDHIYTTQSDVWSFGVLLWEIVTLGGNPYPGIPPERLFNLLKTGHRMERPDNCSEEMYRLMLQCWKQEPDKRPVFADISKDLEKMMVKRRDYLDLAASTPSDSLIYDDGLSEEETPLVDCNNAPLPRALPSTWIENKLYGMSDPNWPGESPVPLTRADGTNTGFPRYPNDSVYANWMLSPSAAKLMDTFDS
With B1, the “MBP Kinase Activity” value is reported as “Strong”.

B2: TYRO3 (protein)
chain: LRKRRKETRFGQAFDSVMARGEPAVHFRAARSFNRERPERIEATLDSLGISDELKEKLEDVLIPEQQFTLGRMLGKGEFGSVREAQLKQEDGSFVKVAVKMLKADIIASSDIEEFLREAACMKEFDHPHVAKLVGVSLRSRAKGRLPIPMVILPFMKHGDLHAFLLASRIGENPFNLPLQTLIRFMVDIACGMEYLSSRNFIHRDLAARNCMLAEDMTVCVADFGLSRKIYSGDYYRQGCASKLPVKWLALESLADNLYTVQSDVWAFGVTMWEIMTRGQTPYAGIENAEIYNYLIGGNRLKQPPECMEDVYDLMYQCWSADPKQRPSFTCLRMELENILGQLSVLSASQDPLYINIERAEEPTAGGSLELPGRDQPYSGAGDGSGMGAVGGTPSDCRYILTPGGLAEQPGQAEHQPESPLNETQRLLLLQQGLLPHSSC
For B2, the “MBP Kinase Activity” value was “Strong”.

B3: CSF1R (protein)
chain: YKYKQKPKYQVRWKIIESYEGNSYTFIDPTQLPYNEKWEFPRNNLQFGKTLGAGAFGKVVEATAFGLGKEDAVLKVAVKMLKSTAHADEKEALMSELKIMSHLGQHENIVNLLGACTHGGPVLVITEYCCYGDLLNFLRRKAEAMLGPSLSPGQDPEGGVDYKNIHLEKKYVRRDSGFSSQGVDTYVEMRPVSTSSNDSFSEQDLDKEDGRPLELRDLLHFSSQVAQGMAFLASKNCIHRDVAARNVLLTNGHVAKIGDFGLARDIMNDSNYIVKGNARLPVKWMAPESIFDCVYTVQSDVWSYGILLWEIFSLGLNPYPGILVNSKFYKLVKDGYQMAQPAFAPKNIYSIMQACWALEPTHRPTFQQICSFLQEQAQEDRRERDYTNLPSSSRSGGSGSSSSELEEESSSEHLTCCEQGDIAQPLLQPNNYQFC
Regarding B3, the “MBP Kinase Activity” value is reported as “Strong”.

B4: ROS1 (protein)
chain: HRRLKNQKSAKEGVTVLINEDKELAELRGLAAGVGLANACYAIHTLPTQEEIENLPAFPREKLTLRLLLGSGAFGEVYEGTAVDILGVGSGEIKVAVKTLKKGSTDQEKIEFLKEAHLMSKFNHPNILKQLGVCLLNEPQYIILELMEGGDLLTYLRKARMATFYGPLLTLVDLVDLCVDISKGCVYLERMHFIHRDLAARNCLVSVKDYTSPRIVKIGDFGLARDIYKNDYYRKRGEGLLPVRWMAPESLMDGIFTTQSDVWSFGILIWEILTLGHQPYPAHSNLDVLNYVQTGGRLEPPRNCPDDLWNLMTQCWAQEPDQRPTFHRIQDQLQLFRNFFLNSIYKSRDEANNSGVINESFEGEDGDVICLNSDDIMPVALMETKNREGLNYMVLATECGQGEEKSEGPLGSQESESCGLRKEEKEPHADKDFCQEKQVAYCPSGKPEGLNYACLTHSGYGDGSD
Turning to B4, the “MBP Kinase Activity” value is “Strong”.
